Measurements taken from patent US9657062B2, “Ghrelin analogues” (Zealand Pharma A/S, priority 2012, dated 2017).
*1 amine or outer side, *2 acyl side, *3 side chain or, on linkers, in order; H or OH if unused. Side-chain parts run from the residue outwards. [ ]: non-standard residue; d: D form. The star is where a group is joined. γGlu = O=C(O)[C@H](CCC(=O)[*:2])N[*:1]; Palmitoyl = CCCCCCCCCCCCCCCC(=O)*; Octanoyl = CCCCCCCC(=O)*; Dap = NC[C@H](N)C(=O)O; Octyl = CCCCCCCC*

B1: H-PS-S(O-octyl)-FLSPEHSRVSSRPESSSPPAKLSPR-NH2 (peptide)
peptide: H-PSS(Octyl)FLSPEHSRVSSRPESSSPPAKLSPR-NH2
SMILES: CCCCCCCCOC[C@H](NC(=O)[C@H](CO)NC(=O)[C@@H]1CCCN1)C(=O)N[C@@H](Cc1ccccc1)C(=O)N[C@@H](CC(C)C)C(=O)N[C@@H](CO)C(=O)N1CCC[C@H]1C(=O)N[C@@H](CCC(=O)O)C(=O)N[C@@H](Cc1c[nH]cn1)C(=O)N[C@@H](CO)C(=O)N[C@@H](CCCNC(=N)N)C(=O)N[C@H](C(=O)N[C@@H](CO)C(=O)N[C@@H](CO)C(=O)N[C@@H](CCCNC(=N)N)C(=O)N1CCC[C@H]1C(=O)N[C@@H](CCC(=O)O)C(=O)N[C@@H](CO)C(=O)N[C@@H](CO)C(=O)N[C@@H](CO)C(=O)N1CCC[C@H]1C(=O)N1CCC[C@H]1C(=O)N[C@@H](C)C(=O)N[C@@H](CCCCN)C(=O)N[C@@H](CC(C)C)C(=O)N[C@@H](CO)C(=O)N1CCC[C@H]1C(=O)N[C@@H](CCCNC(=N)N)C(N)=O)C(C)C
B2: H-PS-S(O-octyl)-FLSPEHSRVSSRKESSKPPAKLSPR-NH2 (peptide)
peptide: H-PSS(Octyl)FLSPEHSRVSSRKESSKPPAKLSPR-NH2
SMILES: CCCCCCCCOC[C@H](NC(=O)[C@H](CO)NC(=O)[C@@H]1CCCN1)C(=O)N[C@@H](Cc1ccccc1)C(=O)N[C@@H](CC(C)C)C(=O)N[C@@H](CO)C(=O)N1CCC[C@H]1C(=O)N[C@@H](CCC(=O)O)C(=O)N[C@@H](Cc1c[nH]cn1)C(=O)N[C@@H](CO)C(=O)N[C@@H](CCCNC(=N)N)C(=O)N[C@H](C(=O)N[C@@H](CO)C(=O)N[C@@H](CO)C(=O)N[C@@H](CCCNC(=N)N)C(=O)N[C@@H](CCCCN)C(=O)N[C@@H](CCC(=O)O)C(=O)N[C@@H](CO)C(=O)N[C@@H](CO)C(=O)N[C@@H](CCCCN)C(=O)N1CCC[C@H]1C(=O)N1CCC[C@H]1C(=O)N[C@@H](C)C(=O)N[C@@H](CCCCN)C(=O)N[C@@H](CC(C)C)C(=O)N[C@@H](CO)C(=O)N1CCC[C@H]1C(=O)N[C@@H](CCCNC(=N)N)C(N)=O)C(C)C
B3: H-PS-Dap(N-octanoyl)-FLSPEHSRVSSRKES-K(hexadecanoyl-isoGlu)-KPPA-NH2 (peptide)
peptide: H-PS[Dap](Octanoyl)FLSPEHSRVSSRKESK([γGlu-Palmitoyl])KPPA-NH2
SMILES: CCCCCCCCCCCCCCCC(=O)N[C@@H](CCC(=O)NCCCC[C@H](NC(=O)[C@H](CO)NC(=O)[C@H](CCC(=O)O)NC(=O)[C@H](CCCCN)NC(=O)[C@H](CCCNC(=N)N)NC(=O)[C@H](CO)NC(=O)[C@H](CO)NC(=O)[C@@H](NC(=O)[C@H](CCCNC(=N)N)NC(=O)[C@H](CO)NC(=O)[C@H](Cc1c[nH]cn1)NC(=O)[C@H](CCC(=O)O)NC(=O)[C@@H]1CCCN1C(=O)[C@H](CO)NC(=O)[C@H](CC(C)C)NC(=O)[C@H](Cc1ccccc1)NC(=O)[C@H](CNC(=O)CCCCCCC)NC(=O)[C@H](CO)NC(=O)[C@@H]1CCCN1)C(C)C)C(=O)N[C@@H](CCCCN)C(=O)N1CCC[C@H]1C(=O)N1CCC[C@H]1C(=O)N[C@@H](C)C(N)=O)C(=O)O
B4: H-PS-S(O-octyl)-FLSPEHQRVQQRKES-K(hexadecanoyl-isoGlu)-KPPAKLQPR-NH2 (peptide)
peptide: H-PSS(Octyl)FLSPEHQRVQQRKESK([γGlu-Palmitoyl])KPPAKLQPR-NH2
SMILES: CCCCCCCCCCCCCCCC(=O)N[C@@H](CCC(=O)NCCCC[C@H](NC(=O)[C@H](CO)NC(=O)[C@H](CCC(=O)O)NC(=O)[C@H](CCCCN)NC(=O)[C@H](CCCNC(=N)N)NC(=O)[C@H](CCC(N)=O)NC(=O)[C@H](CCC(N)=O)NC(=O)[C@@H](NC(=O)[C@H](CCCNC(=N)N)NC(=O)[C@H](CCC(N)=O)NC(=O)[C@H](Cc1c[nH]cn1)NC(=O)[C@H](CCC(=O)O)NC(=O)[C@@H]1CCCN1C(=O)[C@H](CO)NC(=O)[C@H](CC(C)C)NC(=O)[C@H](Cc1ccccc1)NC(=O)[C@H](COCCCCCCCC)NC(=O)[C@H](CO)NC(=O)[C@@H]1CCCN1)C(C)C)C(=O)N[C@@H](CCCCN)C(=O)N1CCC[C@H]1C(=O)N1CCC[C@H]1C(=O)N[C@@H](C)C(=O)N[C@@H](CCCCN)C(=O)N[C@@H](CC(C)C)C(=O)N[C@@H](CCC(N)=O)C(=O)N1CCC[C@H]1C(=O)N[C@@H](CCCNC(=N)N)C(N)=O)C(=O)O
B5: H-PS-S(O-octyl)-FLSPEHSRPSSRPESSSPPAKLSPR-NH2 (peptide)
peptide: H-PSS(Octyl)FLSPEHSRPSSRPESSSPPAKLSPR-NH2
SMILES: CCCCCCCCOC[C@H](NC(=O)[C@H](CO)NC(=O)[C@@H]1CCCN1)C(=O)N[C@@H](Cc1ccccc1)C(=O)N[C@@H](CC(C)C)C(=O)N[C@@H](CO)C(=O)N1CCC[C@H]1C(=O)N[C@@H](CCC(=O)O)C(=O)N[C@@H](Cc1c[nH]cn1)C(=O)N[C@@H](CO)C(=O)N[C@@H](CCCNC(=N)N)C(=O)N1CCC[C@H]1C(=O)N[C@@H](CO)C(=O)N[C@@H](CO)C(=O)N[C@@H](CCCNC(=N)N)C(=O)N1CCC[C@H]1C(=O)N[C@@H](CCC(=O)O)C(=O)N[C@@H](CO)C(=O)N[C@@H](CO)C(=O)N[C@@H](CO)C(=O)N1CCC[C@H]1C(=O)N1CCC[C@H]1C(=O)N[C@@H](C)C(=O)N[C@@H](CCCCN)C(=O)N[C@@H](CC(C)C)C(=O)N[C@@H](CO)C(=O)N1CCC[C@H]1C(=O)N[C@@H](CCCNC(=N)N)C(N)=O
B6: H-PS-S(O-octyl)-FLSPEHSRVSSRKESKSPPAKLSPR-NH2 (peptide)
peptide: H-PSS(Octyl)FLSPEHSRVSSRKESKSPPAKLSPR-NH2
SMILES: CCCCCCCCOC[C@H](NC(=O)[C@H](CO)NC(=O)[C@@H]1CCCN1)C(=O)N[C@@H](Cc1ccccc1)C(=O)N[C@@H](CC(C)C)C(=O)N[C@@H](CO)C(=O)N1CCC[C@H]1C(=O)N[C@@H](CCC(=O)O)C(=O)N[C@@H](Cc1c[nH]cn1)C(=O)N[C@@H](CO)C(=O)N[C@@H](CCCNC(=N)N)C(=O)N[C@H](C(=O)N[C@@H](CO)C(=O)N[C@@H](CO)C(=O)N[C@@H](CCCNC(=N)N)C(=O)N[C@@H](CCCCN)C(=O)N[C@@H](CCC(=O)O)C(=O)N[C@@H](CO)C(=O)N[C@@H](CCCCN)C(=O)N[C@@H](CO)C(=O)N1CCC[C@H]1C(=O)N1CCC[C@H]1C(=O)N[C@@H](C)C(=O)N[C@@H](CCCCN)C(=O)N[C@@H](CC(C)C)C(=O)N[C@@H](CO)C(=O)N1CCC[C@H]1C(=O)N[C@@H](CCCNC(=N)N)C(N)=O)C(C)C
B7: H-PS-S(O-octyl)-FLSPEHSRVSSRKESSSPPAKLSPR-NH2 (peptide)
peptide: H-PSS(Octyl)FLSPEHSRVSSRKESSSPPAKLSPR-NH2
SMILES: CCCCCCCCOC[C@H](NC(=O)[C@H](CO)NC(=O)[C@@H]1CCCN1)C(=O)N[C@@H](Cc1ccccc1)C(=O)N[C@@H](CC(C)C)C(=O)N[C@@H](CO)C(=O)N1CCC[C@H]1C(=O)N[C@@H](CCC(=O)O)C(=O)N[C@@H](Cc1c[nH]cn1)C(=O)N[C@@H](CO)C(=O)N[C@@H](CCCNC(=N)N)C(=O)N[C@H](C(=O)N[C@@H](CO)C(=O)N[C@@H](CO)C(=O)N[C@@H](CCCNC(=N)N)C(=O)N[C@@H](CCCCN)C(=O)N[C@@H](CCC(=O)O)C(=O)N[C@@H](CO)C(=O)N[C@@H](CO)C(=O)N[C@@H](CO)C(=O)N1CCC[C@H]1C(=O)N1CCC[C@H]1C(=O)N[C@@H](C)C(=O)N[C@@H](CCCCN)C(=O)N[C@@H](CC(C)C)C(=O)N[C@@H](CO)C(=O)N1CCC[C@H]1C(=O)N[C@@H](CCCNC(=N)N)C(N)=O)C(C)C
B8: H-PS-S(O-octyl)-FLSPEHSRPSSR-NH2 (peptide)
peptide: H-PSS(Octyl)FLSPEHSRPSSR-NH2
SMILES: CCCCCCCCOC[C@H](NC(=O)[C@H](CO)NC(=O)[C@@H]1CCCN1)C(=O)N[C@@H](Cc1ccccc1)C(=O)N[C@@H](CC(C)C)C(=O)N[C@@H](CO)C(=O)N1CCC[C@H]1C(=O)N[C@@H](CCC(=O)O)C(=O)N[C@@H](Cc1c[nH]cn1)C(=O)N[C@@H](CO)C(=O)N[C@@H](CCCNC(=N)N)C(=O)N1CCC[C@H]1C(=O)N[C@@H](CO)C(=O)N[C@@H](CO)C(=O)N[C@@H](CCCNC(=N)N)C(N)=O
B9: H-PS-S(octanoyl)-FLSPEHQSVQQRKESKKPPAKLQPR-NH2 (peptide)
peptide: H-PSS(Octanoyl)FLSPEHQSVQQRKESKKPPAKLQPR-NH2
SMILES: CCCCCCCC(=O)OC[C@H](NC(=O)[C@H](CO)NC(=O)[C@@H]1CCCN1)C(=O)N[C@@H](Cc1ccccc1)C(=O)N[C@@H](CC(C)C)C(=O)N[C@@H](CO)C(=O)N1CCC[C@H]1C(=O)N[C@@H](CCC(=O)O)C(=O)N[C@@H](Cc1c[nH]cn1)C(=O)N[C@@H](CCC(N)=O)C(=O)N[C@@H](CO)C(=O)N[C@H](C(=O)N[C@@H](CCC(N)=O)C(=O)N[C@@H](CCC(N)=O)C(=O)N[C@@H](CCCNC(=N)N)C(=O)N[C@@H](CCCCN)C(=O)N[C@@H](CCC(=O)O)C(=O)N[C@@H](CO)C(=O)N[C@@H](CCCCN)C(=O)N[C@@H](CCCCN)C(=O)N1CCC[C@H]1C(=O)N1CCC[C@H]1C(=O)N[C@@H](C)C(=O)N[C@@H](CCCCN)C(=O)N[C@@H](CC(C)C)C(=O)N[C@@H](CCC(N)=O)C(=O)N1CCC[C@H]1C(=O)N[C@@H](CCCNC(=N)N)C(N)=O)C(C)C
B10: H-PS-S(octanoyl)-FLSPEHQRVQQSKESKKPPAKLQPR-NH2 (peptide)
peptide: H-PSS(Octanoyl)FLSPEHQRVQQSKESKKPPAKLQPR-NH2
SMILES: CCCCCCCC(=O)OC[C@H](NC(=O)[C@H](CO)NC(=O)[C@@H]1CCCN1)C(=O)N[C@@H](Cc1ccccc1)C(=O)N[C@@H](CC(C)C)C(=O)N[C@@H](CO)C(=O)N1CCC[C@H]1C(=O)N[C@@H](CCC(=O)O)C(=O)N[C@@H](Cc1c[nH]cn1)C(=O)N[C@@H](CCC(N)=O)C(=O)N[C@@H](CCCNC(=N)N)C(=O)N[C@H](C(=O)N[C@@H](CCC(N)=O)C(=O)N[C@@H](CCC(N)=O)C(=O)N[C@@H](CO)C(=O)N[C@@H](CCCCN)C(=O)N[C@@H](CCC(=O)O)C(=O)N[C@@H](CO)C(=O)N[C@@H](CCCCN)C(=O)N[C@@H](CCCCN)C(=O)N1CCC[C@H]1C(=O)N1CCC[C@H]1C(=O)N[C@@H](C)C(=O)N[C@@H](CCCCN)C(=O)N[C@@H](CC(C)C)C(=O)N[C@@H](CCC(N)=O)C(=O)N1CCC[C@H]1C(=O)N[C@@H](CCCNC(=N)N)C(N)=O)C(C)C

Biological target: human growth hormone secretagogue receptor type 1a (human, UniProt Q92847 1-366)
Sequence (Q92847 whole entry): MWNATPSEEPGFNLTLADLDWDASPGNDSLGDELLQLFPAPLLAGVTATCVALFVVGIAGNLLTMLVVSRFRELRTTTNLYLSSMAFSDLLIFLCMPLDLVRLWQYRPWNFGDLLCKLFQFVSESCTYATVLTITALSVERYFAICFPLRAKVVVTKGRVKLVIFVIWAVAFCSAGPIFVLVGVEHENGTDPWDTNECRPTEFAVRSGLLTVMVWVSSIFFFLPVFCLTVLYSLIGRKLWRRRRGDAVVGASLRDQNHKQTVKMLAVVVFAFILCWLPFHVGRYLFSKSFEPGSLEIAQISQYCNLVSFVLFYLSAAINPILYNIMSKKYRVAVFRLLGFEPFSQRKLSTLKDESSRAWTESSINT
Experiment: cell-based or functional assay

| Binder | EC50 (nM); Ca2+ induction in HEK293 cells stably expressing the human ghrelin receptor [nM] |
| --- | --- |
| B1 | 0.525 |
| B2 | 0.359 |
| B3 | 0.566 |
| H-PSS(Octanoyl)FLSPEHQRVQQRKESKKPPAKLQPR-OH [H-PS-S(O-octanoyl)-FLSPEHQRVQQRKESKKPPAKLQPR-OH] | 0.298 |
| B4 | 0.496 |
| B5 | 0.642 |
| B6 | 0.296 |
| B7 | 0.454 |
| B8 | 0.341 |
| B9 | 0.149 |
| B10 | 0.168 |
